{"source": "paper PMC2289895", "about": "(The Journal of Cell Biology, 1991)", "proteins": {"B1": {"name": "NH2 epitope-tagged SIS1 (amino-terminal-tagged SIS1 protein) (natural protein)", "chain": "MVKETKLYDLLGVSPSANEQELKKGYRKAALKYHPDKPTGDTEKFKEISEAFEILNDPQKREIYDQYGLEAARSGGPSFGPGGPGGAGGAGGFPGGAGGFSGGHAFSNEDAFNIFSQFFGGSSPFGGADDSGFSFSSYPSGGGAGMGGMPGGMGGMHGGMGGMPGGFRSASSSPTYPEEETVQVNLPVSLEDLFVGKKKSFKIGRKGPHGASEKTQIDIQLKPGWKAGTKITYKNQGDYNPQTGRRKTLQFVIQEKSHPNFKRDGDDLIYTLPLSFKESLLGFSKTIQTIDGRTLPLSRVQPVQPSQTSTYPGQGMPTPKNPSQRGNLIVKYKVDYPISLNDAQKRAIDENF"}}, "target": "the molecule itself", "experiment": "SEC + co-IP", "data": [{"protein": "B1", "values": [{"measurement": "stoichiometry N", "value": 2}]}]}
